The values that follow come from patent US20220073643A1.

Changes are numbered by the printed parent chain.

For this assay, the target named is Claudin18.2-His protein (human). The assay can be described thus: indirect ELISA on coated Claudin18.2-His.

B1: 252C10F6 (antibody, V domains shown)
VH: QVHLKQSGRGLVQPSQSLSITCTVSGFSLPNYGVHWVRQPPGKGLEWLGVIWSGGNTDYNTVFKARLSITKDNSKSQVFFKMNSLQADDTAIYYCARNLYGNYDYAMDYWGQGTSVTVSS
VL: DIVMTQSPATLSVTPGDRVSLSCRASQSISDYLHWYQQKSHESPRLLIKYASQSISGIPSRFSGSGSGSEFTLSINSVEPEDVGVYYCQNGHSFPFTFGSGTKLEIK
Regarding B1, the concentration giving a half-maximal response (EC50) – broadly, the concentration at which the effect is half-maximal – turned out to be 1.66 µg/mL.

B2: 243B4F2 (antibody, V domains shown)
VH: QAYLQQSGAELVRSGASVKMSCKASGYTFTSHNLHWVKQTPGQGLEWIGYIYPGNGNTNYNQKFKGKATLTADTSSSTAYMQISSLTSEDSAVYFCTRDYYGNSFAYWGQGTLVTVSA
VL: DIVMTQSPSSLTEKAGERVSMSCKSSQSLFNSGNQKNYLTWYQQKPGQPPKLLIYWASTRESGVPDRFTGSGSGTDFTLTISSVQAEDLAVYYCQNNYWFPFTFGAGTKLELK
As to B2, the EC50 was determined as 0.0125 µg/mL.

B3: 252F1B10 (antibody, V domains shown)
VH: B2 VH with L34M, N57G, S84N
VL: B2 VL with N97D, W99R, F100Y
B3 gave an EC50 of 0.00723 µg/mL. This EC50 is about 1.7-fold lower than that of the molecule before.

B4: 256C3D3 (antibody, V domains shown)
VH: B2 VH with T28A, L34M, Y52S, N57Y, K65R, S84G
VL: B2 VL
Take B4: the EC50 was determined as 0.0133 µg/mL.

B5: 243F6D2 (antibody, V domains shown)
VH: B2 VH with K23R, L34M, N57G, N59Y, T97A, A106V
VL: B2 VL with I2V, A15T, R18K, F30L, V84L, A86T, W99R, F100Y
B5 yielded an EC50 of 0.0346 µg/mL.

B6: 273C10E5 (antibody, V domains shown)
VH: QVQLQQSGAELVKPGASVKLSCKASGYTFTSFGINWLRQRPEQGLEWIGWIFPGDGNSKYNENFKGKATLTTDKSSSTAYMQVTRLTSEDSAVYFCARFYYGNSFANWGQGTLVTVSA
VL: B2 VL with E13V, K14T, R18K, S20T, F30L, S58A, T69A, N97D, W99F, F100Y
B6 gave an EC50 of 0.0201 µg/mL.

B7: 257B1G9 (antibody, V domains shown)
VH: B2 VH with L34M, N57G
VL: B2 VL with K14R, N97D, W99R, F100Y
B7 gave an EC50 of 0.00793 µg/mL. Compared with the last molecule, the EC50 is about 2.5-fold lower.

B8: 252E7C9 (antibody, V domains shown)
VH: B2 VH with A2T, K23R, A24T, T28S, L34M, N57G, T58S, N59Y, T69I, A106V
VL: B2 VL with I2V, A15T, R18K, F30L, V84L, A86T, V91I, Y98F, W99R, F100Y
The molecule B8 returned an EC50 of 0.00869 µg/mL.

B9: 275B2G2 (antibody, V domains shown)
VH: EVMLVESGGGLVKPGGSLKLSCAASGFTFRDYTMSWVRQTPEKRLEWVATSIIGGTYTYYPDSVKGRFTISRDNVKNTLYLQMSSLRSEDTAMYYCSRLGRGNAMDYWGQGTSVTVSS
VL: B2 VL with E13V, K14T, R18K, S20T, F30L, N97D, W99S, F100Y, A106S, L112I
The molecule B9 displayed an EC50 of 0.028 µg/mL. Against the preceding molecule, the EC50 is about 3.2-fold higher.

B10: 267H5F12 (antibody, V domains shown)
VH: B2 VH with L34M, Y52S, N57Y, K65R, A106T
VL: B2 VL with D76E
Take B10: the half-maximal effective concentration (EC50) came to 0.00822 µg/mL. Against the preceding molecule, the EC50 is about 3.4-fold lower.

B11: 265E6G2 (antibody, V domains shown)
VH: B2 VH with H32Y, L34M, N57G, T97A
VL: DLVMTQSPSSLTVTAGEKVTMSCKSSQSLLNSGNQKNYLTWYQQKPGQPPKLLIYWASTRESGVPDRFTGSGSGTDFTLTISNIQAEDLAVYYCQNDYSYPLPFGAGTKLELR
B11: the EC50 was 0.0183 µg/mL.

B12: 257F1E11 (antibody, V domains shown)
VH: B2 VH with L34I, G42R, N57G
VL: B2 VL with V91I, N97D, F100Y
The molecule B12 registered an EC50 of 0.0262 µg/mL. The EC50 values of the last two molecules are within 1.5-fold of each other.

B13: 262H9H6 (antibody, V domains shown)
VH: B2 VH with L34M, Y52S, N57Y, K65R, A106T
VL: B2 VL with D76E
In turn, B13 returned an EC50 of 0.014 µg/mL. Compared with the last molecule, the EC50 is about 1.9-fold lower.

B14: 257G7F7 (antibody, V domains shown)
VH: B2 VH
VL: B2 VL
Take B14: the EC50 stood at 0.0198 µg/mL.

B15: 260F8A6 (antibody, V domains shown)
VH: B2 VH with K23R, L34M, N59Y, S77N, S84N, T97V, A106V
VL: B2 VL with I2V, A15T, R18K, F30L, T69I, V84L, A86T, W99M, F100Y
For B15, the EC50 is 0.0151 µg/mL.

B16: 260G9E8 (antibody, V domains shown)
VH: B2 VH with Y3D, T30A, L34M, N57G, N59K, K65T, S84T, T97A
VL: B2 VL with R18K, S22R, F30L, E87D, N97D, W99M
The molecule B16 yielded an EC50 of 0.0358 µg/mL.

B17: 258D11C4 (antibody, V domains shown)
VH: B2 VH with T30S, L34M, N57G
VL: B2 VL with E61Q, N97D
The molecule B17 registered an EC50 of 0.0153 µg/mL.

B18: 257G7B9 (antibody, V domains shown)
VH: B2 VH
VL: B2 VL
In turn, B18 yielded an EC50 of 0.00978 µg/mL. This EC50 is about 1.6-fold lower than that of the molecule before.

B19: 248E6A7 (antibody, V domains shown)
VH: B2 VH with K23R, L34M, N59Y, G66V, S77N, S84N, T97V, A106V
VL: DVVMTQSPSSLTEKTGEKVTMTCKSSQSLLNSGNQKNYLAWYQQKPGQPPKLLIYWASTRESGVPDRFIGSGSGTDFTLTISSLQTEDLAVYYCQNNYMYPFTFGAGTKLELK
B19 registered an EC50 of 0.00969 µg/mL. The EC50 values of the last two molecules are within 1.5-fold of each other.

B20: 259B4D4 (antibody, V domains shown)
VH: EIQLQQSGPELMKPGASVRISCKASGYSFTSYYMHWMKQSHVKSLEWIGYIDPFNGNTRYNQKFKDKATLTVDKSSTTAYMHLSSLTSEDSAVYFCASLRFFAYWGQGTLVTVSA
VL: B11 VL with L2I, K24N, T59S, N83T, I84V, Y100F, P103T, K109R, R113K
As to B20, the EC50 worked out at 0.0197 µg/mL.

B21: 266B11F7 (antibody, V domains shown)
VH: QVQMKESGPGLVAPSQSLSITCTVSGFSLTTYGVTWVRQPPGKGLEWLGVIWGDGSTNYHSALTSRLRISKDKSKSQVFLKLSSLQTDDTATYYCAKPGRGNALDYWGQGTSVTVSS
VL: B11 VL with L2I, S22R, I54V, I81V, N83S, I84V, S99I, Y100F, P103T, R113K
As for B21, the EC50 was determined as 0.0168 µg/mL.

B22: 273F3D4 (antibody, V domains shown)
VH: B21 VH with M4L, S28A, T35S, N58H, T64I, R68S, S70R, K73N, S83N, L104M
VL: B11 VL with L2I, T5S, P49S, N83S, I84M, S99I, P103T, K109M, R113K
The molecule B22 registered a concentration for a half-maximal effect (EC50) of 0.0233 µg/mL.

B23: 194A2F7 (antibody, V domains shown)
VH: QIQLVQSGPELKKPGETVKISCKASGYTFTDYLIHWVKQAPGKGLKWMGWINTETGEPTYADDFKGRFALSLETSASTACLQINNLKNEDTATYFCARIYYGNSFDYWGQGTTLTVSS
VL: DIVMTQSPSSLPVTAGEKVTMTCKSSQNLLNSGNQKSYLTWYQQKPGQPPKLLIYWASTRETGVPDRFTGSGSGTDFTLTISSVQAEDLAVYYCQNAYRFPFTFGAGTRLELK
For the molecule B23, the EC50 came to 0.0438 µg/mL.

B24: 246B5F2 (antibody, IgM, V domains shown)
VH: EVMLVESGGGLMKPGGSLKLSCAASEFTFSNYAMSWVRQTPEKRLEWVATISSGRSSTYYPDSVKGRFTISRDNAKNTLYLQMSSLRSEDTAMYYCAGLGRGNAMEYWGQGTSVTVSS
VL: DIVMTQSPSSLTVTAGEKVTLSCKSSQSLLNSGNQKNYLTWYQQKPGQPPKLLIYWASTRESGVPDRFTGSGSGTDFILTINSVQAEDLAVYYCQNAYSYPFTFGSGTKLEIK
The molecule B24 registered an EC50 of 0.141 µg/mL.

B25: 254A8D5 (antibody, V domains shown)
VH: B9 VH with R30S, D31S, M34V, I53V, G55S, Y60F, N74F, V75A, Y80F, T115S
VL: B24 VL with S22N, K24R, I78T, N82S, E87D, A97G
In the case of B25, the EC50 is 0.0252 µg/mL.

B26: 267B2C5 (antibody, V domains shown)
VH: QVQLKESGPGLVAPSQSLAITCTVSGFSLTTYGVSWVRQPPGKGLEWLGVIWGDGSTHYHSALISRLSIRKDNSKSQVFLKVNSLQTDDTATYYCGKPGRGNAMDYWGQGTSVTVSS
VL: B11 VL with L2I, P49S, N83S, I84V, S99I, P103T, A106G, K109T, R113K
Turning to B26, the EC50 was 0.0113 µg/mL.

B27: 263E9F3 (antibody, V domains shown)
VH: EIQVQQSGPELMKPGASVKISCRSSGYSFTSYYIHWVKQSRGKSLEWIGYIDPFSGGTRYNQKFEGKATLTVDKSSTTAYMHLSSLTSEDSAVYYCASLRFFAYWGQGTLVTVSA
VL: DIVMTQSPSSLTVTAGEKVTMTCKSSQSLLNSGNQENYLTWYQQKPGQPPELLISRASTRQSGVPDRFTGSGSGTDFTLTISSVQTEDLAVYYCQNDYSYPLTFGAGTKLELK
Molecule B27 displayed an EC50 of 0.0113 µg/mL.
